Reference: US20260132200A1 (Regeneron, published 2026)
Where a chain is given by its changes, count along the chain named. Names may count otherwise. Where two headings read alike, the source gives them in different places. Blank lines part the entries; values can stand above or below the binder they belong to.

Assays:
[1] = target: T1, cynomolgus monkey CD3 on monkey T cells (CD2+CD4+ cells of cynomolgus PBMCs) (cynomolgus monkey, UniProt Q95LI5 22-198); assay: FACS on cynomolgus PBMCs, CD2+CD4+ T cells
T1 construct: whole, on cells; also called mkT cells; monkey PBMCs
T1 sequence (Q95LI5 22-198): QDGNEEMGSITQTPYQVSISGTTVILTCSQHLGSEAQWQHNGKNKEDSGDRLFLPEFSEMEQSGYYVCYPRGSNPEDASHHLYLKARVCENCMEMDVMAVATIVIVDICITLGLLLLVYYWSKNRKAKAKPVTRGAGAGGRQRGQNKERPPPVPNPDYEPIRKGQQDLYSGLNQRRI
Experimental: (§1) CD20×CD3 bispecific antibodies and Control constructs, as set forth in Example 1, were tested via FACS for their ability to bind to Jurkat (CD3+, CD20− human T-cell line), Raji (CD3−, CD20+ Human B-cell line), or cynomolgus PBMCs (“mkT cells”).
(§2) FACS data was acquired using the following protocol: Cells at 2×10⁵ per well were incubated with serially diluted antibodies for 30 min on ice. Post incubation, cells were washed and appropriate secondary (Jurkat, RAJI cells) or cocktail of secondary antibodies (for cyno PBMC) was added and incubated for an additional 30 minutes. After incubation, cells were washed, re-suspended in cold PBS containing 1% BSA and analyzed by flow cytometry on a BD FACS Canto II. Jurkat and Raji cells were gated by side and forward scatters, while cynomolgus T cells were also gated in a CD2+CD4+ population. The EC₅₀s for cell binding titration were determined using Prism software with values calculated using a 4-parameter non-linear regression analysis.

[2] = target: T2, human CD20 expressed on Raji cells (CD3-, CD20+ human B-cell line) (human, UniProt P11836 1-297); assay: cell-based or functional assay
T2 sequence: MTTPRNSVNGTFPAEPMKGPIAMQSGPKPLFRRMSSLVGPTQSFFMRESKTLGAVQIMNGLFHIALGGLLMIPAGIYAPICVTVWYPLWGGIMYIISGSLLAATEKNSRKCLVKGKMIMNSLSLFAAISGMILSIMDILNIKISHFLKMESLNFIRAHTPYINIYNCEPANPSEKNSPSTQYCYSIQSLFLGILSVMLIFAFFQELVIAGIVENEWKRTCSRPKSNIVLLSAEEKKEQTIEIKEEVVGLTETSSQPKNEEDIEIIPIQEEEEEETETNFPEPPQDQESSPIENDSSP

[3] = target: T3, human CD3 expressed on cells (Jurkat, a CD3+ human T-cell line; human T cells) (human, UniProt P07766 23-126; P04234 22-100); assay: FACS on Jurkat cells
T3 construct: also called FACS JURKAT
T3 chain 1: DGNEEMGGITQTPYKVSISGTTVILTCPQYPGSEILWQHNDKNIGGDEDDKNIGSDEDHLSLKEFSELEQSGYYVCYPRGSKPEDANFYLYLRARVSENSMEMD
T3 chain 2: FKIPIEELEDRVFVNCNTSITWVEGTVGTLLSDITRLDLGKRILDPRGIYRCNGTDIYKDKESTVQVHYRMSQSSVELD
Experimental: as §1, §2

[4] = target: T2, human CD20 expressed on Raji cells …; assay: cell-based or functional assay; remark: listed apart in the source
[5] = target: T3, human CD3 expressed on cells (Jurkat, a …); assay: cell-based or functional assay
[6] = target: T2, human CD20 expressed on Raji cells …; assay: cell-based or functional assay; remark: listed apart in the source
[7] = target: T2, human CD20 expressed on Raji cells …; assay: FACS on Raji cells
Experimental: as §1, §2

[8] = target: T3, human CD3 expressed on cells (Jurkat, a …); assay: cell-based or functional assay
[9] = target: T3, human CD3 expressed on cells (Jurkat, a …); assay: FACS on Jurkat cells
Experimental: Binding was assessed using Jurkat cells (a CD3+ human T-cell line), while proliferation of Peripheral Blood Mononuclear Cells (PBMC) was assessed using ATP catalyzed quantification (CellTiter Glo®).
FACS data was acquired using the following protocol: Cells at 2×10⁵ per well were incubated with serially diluted antibodies for 30 min on ice. Post incubation, cells were washed and secondary antibody was added and incubated for an additional 30 minutes. After incubation, cells were washed, re-suspended in cold PBS containing 1% BSA and analyzed by flow cytometry with viable Jurkat cells gated by side and forward scatters. The EC₅₀s for cell binding titration were determined using Prism software with values calculated using a 4-parameter non-linear regression analysis.

[10] = target: T4, Soluble heterodimeric CD3 protein (hCD3-epsilon/hCD3-delta) with either a human Fc tag (hFcΔAdp/hFc) or a … (human, UniProt P07766 23-126; P04234 22-100); assay: SPR Biacore 25C antibody-capture
T4 construct: Soluble construct; not shown: Fc tag: human (hFcΔAdp/hFc)
T4 chain 1: T3 chain 1
T4 chain 2: T3 chain 2
Experimental: (§3) Measurements were conducted on a T200 Biacore instrument.
Heterodimeric CD3 protein was purified using the method described in Davis et al. (US2010/0331527).
(§4) Kinetic association (kₐ) and dissociation (kd) rate constants were determined by processing and fitting the data to a 1:1 binding model using Scrubber 2.0 curve fitting software. Binding dissociation equilibrium constants (KD) and dissociative half-lives (t_{1/2}) were calculated from the kinetic rate constants as: KD (M)=kd/kₐ; and t_{1/2} (min) (ln 2/(60*kd). NT=not tested; NB=no binding observed.

[11] = target: T4, Soluble heterodimeric CD3 protein …; assay: SPR Biacore 25C antigen-capture
Experimental: as §3
In the antigen-capture format, heterodimeric CD3 protein was captured using a rabbit anti-mouse Fc or mouse anti-human Fc and the respective antibodies were injected over the captured antigen.
as §4

binding result [1]: no binding
CDC EC50, Raji [2]: 247 pM
CDC EC50, Raji SCID1 [2]: 51900 pM
CDC EC50, Raji SCID2 [2]: 229 pM
CDC EC50, Raji SCID3 [2]: 5710 pM
CDC EC50, Raji SCID4 [2]: 1140 pM
binding result [3]: no binding
B1: Control IV: monoclonal anti-CD20 antibody 3B9-10 (antibody, V domains shown)
VH: EVQLVESGGGLVQPGRSLRLSCVASGFTFNDYAMHWVRQAPGKGLEWVSVISWNSDSIGYADSVKGRFTISRDNAKNSLYLQMHSLRAEDTALYYCAKDNHYGSGSYYYYQYGMDVWGQGTTVTVSS
VL: EIVMTQSPATLSVSPGERATLSCRASQSVSSNLAWYQQKPGQAPRLLIYGTSTRATGIPARFSGSGSGTEFTLTISSLQSEDFAVYYCQQYNNWPLTFGGGTKVEIK
notes: also called Control IV (anti-CD20)

CD25 upregulation on CD8+ T-cells, PBMC + Raji, EC50 [4]: 0.338 pM
CD25 upregulation on CD8+ T-cells, PBMC, EC50 [4]: 365 pM
EC50 [3]: 56700 pM
EC50 [7]: 92400 pM
B2: BS3/20-003 (bispecific antibody, V domains shown)
VH 1: B1 VH
VH 2: EVQLVESGGGLVQPGRSLRLSCAASGFTFDDYTMHWVRQAPGKGLEWVSGISWNSGSIGYADSVKGRFTISRDNAKKSLYLQMNSLRAEDTALYYCAKDNSGYGHYYYGMDVWGQGTTVTVAS
VL: B1 VL with T51A, Q90H, N92I
U937 Cytotoxicity Human T-cells [M] (EC50) [5]: 8.1e-11 M
Raji Cytotoxicity Human T-cells [M] (EC50) [6]: 7.38e-11 M
Raji Cytotoxicity Monkey T-cells [M] (EC50) [6]: 4.36e-14 M

EC50 [9]: 711 pM
B3: H2M2709N (antibody, mouse IgG2, V domains shown)
VH: QVQLVESGGGVVQPGRSLRLSCAASGFTFRSFGMHWVRQAPGRGLEWVAMIYFDGKNKYYADSVRGRFTISRDNSKNTLYLEMSSLRAEDTAVYFCARGPGYNWLDPWGQGTLVTVSS
VL: B1 VL with A19V, V29I, S31R, T51A, I58V, Y86F, Y87H, W94R, K103E
notes: mouse IgG2 Fc (H2M), human variable regions
U937 Cytotoxicity Human T-cells [M] (EC50) [8]: 3.47e-12 M

CD25 upregulation on CD8+ T-cells, PBMC + Raji, EC50 [4]: 1.35 pM
CD25 upregulation on CD8+ T-cells, PBMC, EC50 [4]: 112 pM
EC50 [3]: 38500 pM
EC50 [7]: 59900 pM
B4: BS3/20-001 (bispecific antibody, V domains shown)
VH 1: B1 VH
VH 2: B2 VH 2
VL: AEIVMTQSPATLSVSPGERATLSCRASQSVSSNLAWYQQKPGQAPRLLIYGASTRATGIPARFSGSGSGTEFTLTISSLQSEDFAVYYCQHYINWPLTFGGGTKVEIK
notes: also called CD3×CD20 bispecific antibody
U937 Cytotoxicity Human T-cells [M] (EC50) [5]: 8.86e-11 M
Raji Cytotoxicity Human T-cells [M] (EC50) [6]: 5.63e-11 M
Raji Cytotoxicity Monkey T-cells [M] (EC50) [6]: 1.27e-12 M

Kd [10]: 10200 pM
koff [10]: 0.000639 s⁻¹
kon [10]: 62900 M⁻¹ s⁻¹
Kd [11]: 140 pM
T½ [11]: 52 min
koff [11]: 0.000222 s⁻¹
kon [11]: 1.58e+06 M⁻¹ s⁻¹
B5: H2M2776N (antibody, V domains shown)
VH: B3 VH
VL: B1 VL with A19V, T20I, V29I, S31R, T51A, S52T, I58V, Y86F, W94R, K103E
notes: mouse IgG2 Fc, human variable regions

EC50 [9]: 491 pM
B6: H2M2776N (antibody, mouse IgG2, V domains shown)
VH: B3 VH
VL: B1 VL with A19V, T20I, V29I, S31R, T51A, S52T, I58V, Y86F, W94R, K103E
notes: as for B3
U937 Cytotoxicity Human T-cells [M] (EC50) [8]: 4.06e-12 M

EC50 [9]: 845 pM
B7: H2M2704N (antibody, mouse IgG2, V domains shown)
VH: B3 VH with A23G, F32Y, A40T, F53Y, K56N, I70V, E82Q, V93L
VL: B1 VL with V29I, S31R, T51A, W94R, K103E
notes: as for B3
U937 Cytotoxicity Human T-cells [M] (EC50) [8]: 2.49e-12 M
